Where “and” joins values, the source holds several entries; their conditions need not be identical. Identical values can stand only once.
How the values were obtained:
[1] = target: c-Met (endogenous, on human cell lines 184B5, HCT-116, DU-145 and NCI H441) (human, UniProt P08581 25-1390); test: cell-based or functional assay
[2] = target: T1, c-Met/Fc Chimera (R&D Systems, catalog # 358-MT-100) (human, UniProt P08581 25-932); test: competition ELISA: displacement of biotinylated HGF from plate-coated c-Met/Fc chimera, IgG, n = 2
T1 construct: extracellular domain; Bought reagent; also called human c-Met-Fc fusion protein; recombinant c-Met protein; Fc part of the bought chimera not given
T1 sequence (P08581 25-932, change not shown): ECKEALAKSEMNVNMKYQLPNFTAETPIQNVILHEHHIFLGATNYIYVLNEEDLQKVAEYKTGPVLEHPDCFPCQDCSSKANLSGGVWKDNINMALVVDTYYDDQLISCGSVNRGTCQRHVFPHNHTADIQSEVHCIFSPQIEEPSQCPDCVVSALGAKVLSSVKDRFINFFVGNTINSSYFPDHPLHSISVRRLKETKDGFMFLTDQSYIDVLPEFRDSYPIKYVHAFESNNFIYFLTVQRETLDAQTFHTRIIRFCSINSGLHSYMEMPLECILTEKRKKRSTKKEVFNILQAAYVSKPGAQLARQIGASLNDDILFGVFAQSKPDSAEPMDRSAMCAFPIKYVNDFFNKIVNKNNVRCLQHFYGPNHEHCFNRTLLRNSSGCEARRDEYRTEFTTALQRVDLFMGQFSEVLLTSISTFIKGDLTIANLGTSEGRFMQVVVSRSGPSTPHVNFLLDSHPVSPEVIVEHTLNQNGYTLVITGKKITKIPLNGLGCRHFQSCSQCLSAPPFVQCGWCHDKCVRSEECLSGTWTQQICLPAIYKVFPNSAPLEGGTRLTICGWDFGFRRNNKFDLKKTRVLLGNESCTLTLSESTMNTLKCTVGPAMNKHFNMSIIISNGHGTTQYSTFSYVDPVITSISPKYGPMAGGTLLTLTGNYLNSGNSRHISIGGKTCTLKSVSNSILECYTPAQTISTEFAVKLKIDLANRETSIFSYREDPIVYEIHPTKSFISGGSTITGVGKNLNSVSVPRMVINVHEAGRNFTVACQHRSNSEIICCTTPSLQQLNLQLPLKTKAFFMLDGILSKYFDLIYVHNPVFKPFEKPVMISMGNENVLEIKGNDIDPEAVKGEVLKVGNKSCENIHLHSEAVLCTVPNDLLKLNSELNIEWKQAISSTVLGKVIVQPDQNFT
Procedure: (§1) 96-well Fluoronunc plates were coated with 50 ul of 0.5 ug/ml c-Met/Fc Chimera (R&D Systems, Minneapolis Minn., catalog # 358-MT-100) in phosphate buffered saline (PBS) and the plates were incubated overnight at room temperature. Wells were washed three times with washing buffer (PBS+0.1% Tween 20), blotting the plates on paper towels between each wash. Nonspecific binding in the wells was blocked by the addition of 250 ul of blocking buffer (3.0% milk (Carnation) in PBS) to each well and incubated at room temperature for two hours.
(§2) The c-Met antibodies were diluted in reagent buffer (PBS, 0.5% BSA, 0.05% Tween-20) and titrations were performed in 96 well polypropylene plates. Biotinylated HGF (0.4 ug/ml) (R&D Systems, biotinylated with Pierce #21335 as per manufacturer's instructions) was added to each well. 50 ul of the dilutions were transferred into the Fluoronunc plates containing human c-Met-Fc fusion protein (R&D Systems, #) and the plates were incubated for two hours at room temperature. The plates were washed three times with wash buffer and blotted onto paper towels. 50 ul of europium-labeled Streptavidin (Wallac Perkin Elmer) diluted 1:1000 in Delfia assay buffer (Wallac Perkin Elmer) was added per well and the plates were incubated for one hour at room temperature. The plates were washed seven times with Delfia wash buffer (Tris buffered saline (TBS) supplemented with 0.1% Tween-20) and blotted onto paper towels. 100 ul Delfia enhancer solution (Wallac Perkin Elmer) was added to each well and the plates incubated for 5 minutes on a plate shaker at room temperature. Plates were read on a fluorescence plate reader and analyzed using GraphPad Prism software (GraphPad Software, San Diego, Calif.).
(§3) C-Met antibodies 1A3.3.13 (#HB-11894, ATCC Hybridoma) and 5D5.11.6 (#HB-11895, ATCC Hybridoma) were used as positive controls. MOPC-21 (#M-7894, Sigma) was used as an IgG isotype control and HB-94 (#HB-94, ATCC Hybridoma) was converted into a Fab fragment and used as a Fab isotype control. NK4-Elastase is a kringle to kringle 4 fragment resulting from digesting intact HGF purified from S-114 cells with elastase (Date et al., FEBS Lett. 420:1-6 ([…]).

[3] = target: T1, c-Met/Fc Chimera (R&D Systems, catalog …); test: europium (DELFIA) ligand competition ELISA: biotinylated HGF binding to plate-coated c-Met/Fc Chimera, antibody titrated
Procedure: as §1, §2

[4] = target: T1, c-Met/Fc Chimera (R&D Systems, catalog …); test: competition ELISA: displacement of biotinylated HGF from plate-coated c-Met/Fc chimera; value stands in the Fab column, n = 2
Procedure: as §1
The c-Met antibodies were diluted in reagent buffer (PBS, 0.5% BSA, 0.05% Tween-20) and titrations were performed in 96 well polypropylene plates. Biotinylated HGF (0.4 ug/ml) (R&D Systems, biotinylated with Pierce #21335 as per manufacturer's instructions) was added to each well. 50 ul of the dilutions were transferred into the Fluoronunc plates containing human c-Met-Fc fusion protein (R&D Systems, #) and the plates were incubated for two hours at room temperature. The plates were washed three times with wash buffer and blotted onto paper towels. […] Plates were read on a fluorescence plate reader and analyzed using GraphPad Prism software (GraphPad Software, San Diego, Calif.). […]

[5] = target: T2, biotinylated c-Met-Fc (R&D Systems, #358-MT-100/CF, 5.1 biotin per c-Met molecule) (human, UniProt P08581 25-932, biotinylated, 5.1 biotin per c-Met molecule (Pierce #21335)); test: SPR (BIAcore), biotinylated c-Met-Fc captured on streptavidin chip, IgG as analyte, bivalent model
T2 construct: extracellular domain; Captured on a streptavidin (SA) chip for the BIAcore study of the IgGs; Fc part of the bought chimera not given
T2 sequence (P08581 25-932): as the sequence (P08581 25-932, change not shown) above
Procedure: The binding properties (on-rate, off-rate and affinity) of c-Met monoclonal antibodies (IgG or Fab versions) with human c-Met extracellular domain was determined using surface plasmon resonance, or BLAcore, technology. For the binding studies with IgG, a low density (<1 ng/mm2) of c-Met-Fc (R&D Systems, #358-MT-100/CF) containing 5.1 biotin per c-Met molecule (prepared with Pierce #21335 as per manufacturer's instructions) was captured onto a SA chip precoated with Streptavidin (BIAcore Inc.). A streptavidin flow cell without adsorbed c-Met-Fc was used as a control cell for non-specificbinding. The antibody sample to be analyzed was prepared in HEPES buffer (0.15M NaCl, 10 mM HEPES, 3.4 mM EDTA, 0.005% surfactant P-20, pH 7.4) to form a set of solutions varied in concentration from 0.78 nM to 100 nM. The HEPES buffer used as the running solution was set at a flow rate of 50 ul/min. Each sample solution was injected over the two flow cells for three minutes, followed by 5 minutes of dissociation. The flow cells were then regenerated with 4.5M MgCl₂ for one minute to remove the bound antibody for the next cycle of binding study. The net sensorgrams (subtraction of sensorgrams from the negative control flow cell as well as that from the buffer blank) obtained for each set of samples were processed simultaneously in a global fitting using a bivalent binding model of the BIAevaluation software program equipped with the system. The on-rate (Kₐ), off-rate (Kd) and binding affinity (KD) were determined from the fitting with KD equal to kd/kₐ.

[6] = target: T1, c-Met/Fc Chimera (R&D Systems, catalog …); test: SPR (BIAcore), c-Met-Fc captured on protein A CM5 chip, Fab as analyte, 1:1 Langmuir model
Procedure: For the binding study of Fab fragments derived from antibodies of the invention, a high density (>2 ng/mm²) of protein A was first immobilized covalently onto a CM5 sensorchip using EDC/NHS amine coupling chemistry [. The flow cell containing c-Met-Fc captured by the protein A was used as the positive control while a flow cell containing only protein A was used as the negative control. The Fab sample to be analyzed was as above for antibodies to form a set of solutions with concentration ranged from 3.9 nM to 500 nM. The HEPES buffer used as the running solution was set at a flow rate of 50 ul/min. For each cycle of binding study, low density (<1 ng/mm²) of c-Met-Fc was captured first onto the positive flow cell. Each sample solution was then injected over the two flow cells (one negative and one positive in series) for three minutes followed by 5 minutes of dissociation. The flow cells were then regenerated with 4.5M MgCl₂ for one minute to remove the bound c-Met-Fc/Fab complexes for the next cycle of binding. The net sensorgrams (subtraction of sensorgrams from the negative control flow cell as well as that from the buffer blank) obtained from the set of samples were fitted simultaneously in a global fitting using a Langmuir 1:1 binding model of the BIAevaluation program equipped with the system. The on-rate (Kₐ), off-rate (Kd) and binding affinity (KD) were determined from the fitting with KD equal to kd/kₐ.

[7] = target: T1, c-Met/Fc Chimera (R&D Systems, catalog …); test: competition ELISA: displacement of biotinylated HGF from plate-coated c-Met/Fc chimera, Fab, n = 2
Procedure: as §1, §2, §3

[8] = target: T1, c-Met/Fc Chimera (R&D Systems, catalog …); test: europium (DELFIA) ligand competition ELISA: biotinylated HGF binding to plate-coated c-Met/Fc Chimera, Fab titrated
Procedure: as §1
The c-Met antibodies were diluted in reagent buffer (PBS, 0.5% BSA, 0.05% Tween-20) and titrations were performed in 96 well polypropylene plates. Biotinylated HGF (0.4 ug/ml) (R&D Systems, biotinylated with Pierce #21335 as per manufacturer's instructions) was added to each well. 50 ul of the dilutions were transferred into the Fluoronunc plates containing human c-Met-Fc fusion protein (R&D Systems, #) and the plates were incubated for two hours at room temperature. The plates were washed three times with wash buffer and blotted onto paper towels. […] Plates were read on a fluorescence plate reader and analyzed using GraphPad Prism software (GraphPad Software, San Diego, Calif.).

Chain of c-Met (endogenous, on human cell lines 184B5, HCT-116, DU-145 and NCI H441) (P08581 25-1390): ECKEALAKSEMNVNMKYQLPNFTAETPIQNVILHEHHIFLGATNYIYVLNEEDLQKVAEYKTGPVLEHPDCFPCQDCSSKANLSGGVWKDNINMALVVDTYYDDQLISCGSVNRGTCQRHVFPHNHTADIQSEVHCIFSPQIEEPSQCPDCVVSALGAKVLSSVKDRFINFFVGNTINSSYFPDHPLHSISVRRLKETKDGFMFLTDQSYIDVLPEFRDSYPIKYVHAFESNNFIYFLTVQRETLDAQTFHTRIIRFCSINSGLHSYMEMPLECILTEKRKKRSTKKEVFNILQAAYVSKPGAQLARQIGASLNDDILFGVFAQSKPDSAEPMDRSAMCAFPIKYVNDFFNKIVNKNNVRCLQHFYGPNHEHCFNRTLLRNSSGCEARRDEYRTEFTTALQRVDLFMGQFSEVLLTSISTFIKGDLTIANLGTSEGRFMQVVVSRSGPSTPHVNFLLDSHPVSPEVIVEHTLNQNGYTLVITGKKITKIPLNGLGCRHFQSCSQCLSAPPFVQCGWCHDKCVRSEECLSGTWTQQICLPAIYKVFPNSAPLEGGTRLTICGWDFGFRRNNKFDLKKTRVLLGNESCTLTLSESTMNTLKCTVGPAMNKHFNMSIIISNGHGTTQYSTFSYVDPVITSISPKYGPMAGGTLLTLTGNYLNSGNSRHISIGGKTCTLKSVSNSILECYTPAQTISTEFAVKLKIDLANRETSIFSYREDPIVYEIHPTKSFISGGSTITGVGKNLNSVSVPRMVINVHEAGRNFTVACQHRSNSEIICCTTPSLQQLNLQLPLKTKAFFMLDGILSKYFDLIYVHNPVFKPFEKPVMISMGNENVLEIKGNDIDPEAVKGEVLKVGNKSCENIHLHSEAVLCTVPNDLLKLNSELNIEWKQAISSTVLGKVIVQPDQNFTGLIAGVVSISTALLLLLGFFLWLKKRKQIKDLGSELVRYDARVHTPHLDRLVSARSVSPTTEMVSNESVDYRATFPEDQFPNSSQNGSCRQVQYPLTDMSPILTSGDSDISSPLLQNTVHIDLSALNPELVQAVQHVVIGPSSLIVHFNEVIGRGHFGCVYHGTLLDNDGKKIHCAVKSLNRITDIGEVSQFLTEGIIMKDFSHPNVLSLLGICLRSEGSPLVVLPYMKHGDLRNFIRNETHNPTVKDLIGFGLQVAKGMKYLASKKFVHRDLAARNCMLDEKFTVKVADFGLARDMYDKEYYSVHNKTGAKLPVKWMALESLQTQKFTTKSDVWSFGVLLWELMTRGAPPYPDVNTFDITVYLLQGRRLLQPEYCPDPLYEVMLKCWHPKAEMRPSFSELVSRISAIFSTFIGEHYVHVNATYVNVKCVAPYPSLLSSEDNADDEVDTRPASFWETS

Binder	scatter assay on DU-145 cells, mean object area, agonist (alone), 100 nM IgG; the smaller the number, the more scattering [1]	scatter assay on DU-145 cells, mean object area, antagonist (w/30 pM HGF), 100 nM IgG; the smaller the number, the more scattering [1]	IC50 [2]	IC50 (read off the curve) [3]	Kd [5]	koff [5]	kon [5]	other results
c-Met IgG antibody 11978 (antibody, V domains shown, IgG of scFv PGIA-1-A8; also called IgG of scFv PGIA-01-A8 (PGIA-1-A8)) VH: not shown VL: NFMLTQPHSVSESPGKTVTISCTRSSGSIAFDYVQWYQQRPGSAPTTVIYEDNQRPSGVPDRFSASIDSSSNSASLTISALKTEDEADYYCQSYDNSNSWVFGGGTKLTVLG	459 mean object area	372 mean object area	0.84 nM	~0.8 nM	–	–	–	–
NK4-6His (recombinant NK4, CHO DG44/pPHA27965) (ligand, domain: NK4; also called NK4-His) QRKRRNTIHEFKKSAKTTLIKIDPALKIKTKKVNTADQCANRCTRNKGLPFTCKAFVFDKARKQCLWFPFNSMSSGVKKEFGHEFDLYENKDYIRNCIIGKGRSYKGTVSITKSGIKCQPWSSMIPHEHSFLPSSYRGKDLQENYCRNPRGEEGGPWCFTSNPEVRYEVCDIPQCSEVECMTCNGESYRGLMDHTESGKICQRWDHQTPHRHKFLPERYPDKGFDDNYCRNPDGQPRPWCYTLDPHTRWEYCAIKTCADNTMNDTDVPLETTECIQGQGEGYRGTVNTIWNGIPCQRWDSQYPHEHDMTPENFKCKDLRENYCRNPDGSESPWCFTTDPNIRVGYCSQIPNCDMSHGQDCYRGNGKNYMGNLSQTRSGLTCSMWDKNMEDLHRHIFWEPDASKLNENYCRNPDDDAHGPWCYTGNPLIPWDYCPISRCEGDTTPTIVHHHHHH	–	–	–	–	–	–	–	IC50 [4]: > 125 nM
c-Met IgG antibody 12075 (antibody, V domains shown, IgG of scFv PGIA-3-A11; also called 12075 IgG; IgG of scFv PGIA-03-A11 (PGIA-3-A11)) VH: QVQLVQSGPEVKKPGASVEVSCKASGYTFTGDYMHWVRQAPGQGPEWMGWINPQTGVTKYAQKFQGRVTMARDTSINTAYMELRGLRSDDTAVYYCVREDHNYDLWSAYNGLDVWGQGTLVTVSS VL: QSVLTQPPSVSAAPGQKVTISCSGSSSNIGNNHVSWYQQLAGTAPKLLIFDNDKRPSGIPDRFSGSKSGTSATLGITGLQTGDEADYYCGTWDKSPTDIYVFGSGTKLTVLG	318 mean object area	289 mean object area	2.55 nM	~3 nM	552 nM	0.00845 s⁻¹	15300 M⁻¹ s⁻¹	–
NK4-Elastase (ligand, UniProt P14210 32-478, looked up, domain: kringle to kringle 4 fragment) QRKRRNTIHEFKKSAKTTLIKIDPALKIKTKKVNTADQCANRCTRNKGLPFTCKAFVFDKARKQCLWFPFNSMSSGVKKEFGHEFDLYENKDYIRNCIIGKGRSYKGTVSITKSGIKCQPWSSMIPHEHSFLPSSYRGKDLQENYCRNPRGEEGGPWCFTSNPEVRYEVCDIPQCSEVECMTCNGESYRGLMDHTESGKICQRWDHQTPHRHKFLPERYPDKGFDDNYCRNPDGQPRPWCYTLDPHTRWEYCAIKTCADNTMNDTDVPLETTECIQGQGEGYRGTVNTIWNGIPCQRWDSQYPHEHDMTPENFKCKDLRENYCRNPDGSESPWCFTTDPNIRVGYCSQIPNCDMSHGQDCYRGNGKNYMGNLSQTRSGLTCSMWDKNMEDLHRHIFWEPDASKLNENYCRNPDDDAHGPWCYTGNPLIPWDYCPISRCEGDTTPTIV	–	–	–	–	–	–	–	IC50 [4]: 900 nM and 551 nM
c-Met IgG antibody 12119 (antibody, V domains shown, IgG of scFv PGIA-5-A1; also called 12119 IgG; IgG of scFv PGIA-05-A1 (PGIA-5-A1)) VH: QLQLQESGPGLVKPSGTLSLTCAVSGGSISTSDWWSWVRRPPGKGLEWIGEIYHSGSTNYHPSLKSRVTISLDKSKNQFSLKLSSVTAADTAVYYCAREGGHSGSYPLDYWGRGTLVTVSS VL: NFMLTQPHSVSESPGKTVTISCARSSGSIASNYVQWYQQRPGSSPTTLIYEDRQRPSGVPDRFSGSIDSSSNSASLTISGLKTEDEADYYCQSYDSSDHVVFGGGTKLTVLG	285 mean object area	293 mean object area	0.64 nM	~0.7 nM	13 nM	0.00112 s⁻¹	86000 M⁻¹ s⁻¹	–
c-Met IgG antibody 11994 (antibody, V domains shown, IgG of scFv PGIA-3-A9; also called 11994 IgG; 11994-50) VH: QVQLQESGPGLVKPSGTLSLTCAVSGGSISTSDWWSWVRRPPGKGLEWIGEIYHSGSTNYHPSLKSRVTISLDKSKNQFSLKLSSVTAADTAVYYCAREGGHSGSYPLDYWGKGTLVTVSS VL: NFMLTQPHSVSESPGKTVTISCTRSSGSIASNYVQWYQQRPGSSPTTVIYEDNQRPSGVPDRFSGSIDSSSNSASLTISGLKTEDEADYYCQSYDSSNQGVVFGGGTKLTVLG	–	–	0.58 nM	~0.7 nM	8.4 nM	0.000759 s⁻¹	90600 M⁻¹ s⁻¹	–
c-Met 11994 Fab (Fab, V domains shown, VH and VL limits counted as for the IgG; also called 11994-50; Fab fragment derived from c-Met antibody 11994) VH: QVQLQESGPGLVKPSGTLSLTCAVSGGSISTSDWWSWVRRPPGKGLEWIGEIYHSGSTNYHPSLKSRVTISLDKSKNQFSLKLSSVTAADTAVYYCAREGGHSGSYPLDYWGKGTLVTVSS VL: NFMLTQPHSVSESPGKTVTISCTRSSGSIASNYVQWYQQRPGSSPTTVIYEDNQRPSGVPDRFSGSIDSSSNSASLTISGLKTEDEADYYCQSYDSSNQGVVFGGGTKLTVLG	–	–	–	–	–	–	–	Kd [6]: 13.8 nM; koff [6]: 0.00528 s⁻¹; kon [6]: 383000 M⁻¹ s⁻¹; IC50 [7]: 24.6 nM; IC50 (read off the curve) [8]: ~3 nM
